# Measured values as given in the supplement of paper PMC7125110.
# ± gives the standard error. For some of these results: Variants at the floor of the assay were thinned out.
# B1: glmS ribozyme (parent)
# chain: AUAAAAGCGCCAGAACUACAGAAAUGUAGUUGACGAGGAGGAGGUUUAUCGAAUUUUCGGCGGAUGCCUCCAAA
# How the values were obtained:
# Conditions in all cases: with glucosamine-6-phosphate
# [1] = variants of: B1; assay: kcat; higher = faster cleavage; RNA array
# Method in brief: (§1)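 A hybridised Cy3 probe tracked barcoded ribozyme variants, transcribed in situ by E. coli RNA polymerase on sequenced MiSeq chips, at 37 °C. The variants received 40 μM to 10 mM glucosamine-6-phosphate in HEPES/KCl/Mg(OAc)2 buffer. kobs came from decay fits and kcat and KM from weighted Michaelis–Menten fits.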
# [2] = variants of: B1; assay: KM; higher = weaker cofactor use; RNA array
# Method in brief: as §1
# [3] = variants of: B1; assay: self-cleavage kobs at 640 uM GlcN6P; higher = faster cleavage; RNA array
# Method in brief: as §1
# [4] = variants of: B1; assay: self-cleavage kobs at 2500 uM GlcN6P; higher = faster cleavage; RNA array
# Method in brief: as §1
# [5] = variants of: B1; assay: self-cleavage kobs at 10000 uM GlcN6P; higher = faster cleavage; RNA array
# Method in brief: as §1
# [6] = variants of: B1; assay: self-cleavage kobs at 40 uM GlcN6P; higher = faster cleavage; RNA array
# Method in brief: as §1
# [7] = variants of: B1; assay: self-cleavage kobs at 160 uM GlcN6P; higher = faster cleavage; RNA array
# Method in brief: as §1
Variant,kcat [1] [s⁻¹],KM [2] [µM],self-cleavage kobs at 640 uM GlcN6P [3] [s⁻¹],self-cleavage kobs at 2500 uM GlcN6P [4] [s⁻¹],self-cleavage kobs at 10000 uM GlcN6P [5] [s⁻¹],self-cleavage kobs at 40 uM GlcN6P [6] [s⁻¹],self-cleavage kobs at 160 uM GlcN6P [7] [s⁻¹]
A48U U55C,0.000437 ± 6.5e-05,2190 ± 650,0.000116 ± 2.5e-05,0.000214 ± 3.6e-05,0.000378 ± 6.8e-05,,
A48U U55G,0.000482 ± 2.4e-05,3300 ± 360,7.42e-05 ± 2.3e-05,0.000226 ± 5.6e-05,0.000359 ± 4.8e-05,,
U46C U47A,0.00433 ± 0.002,,0.000719 ± 0.00017,0.00311 ± 0.0008,0.00365 ± 0.001,9.34e-05 ± 1.5e-05,
U45G U69G,0.000184 ± 5.8e-05,,,,0.000152 ± 3.8e-05,,
U45A U65G,0.00585 ± 0.001,4290 ± 1100,0.000543 ± 0.00016,0.00235 ± 0.00063,0.00411 ± 0.00045,5.91e-05 ± 7.9e-06,
U46G A64C,1.9e-05 ± 5.9e-07,227 ± 47,,,,< 1e-05,
U54G C68U C70A,6.79e-05 ± 7.7e-06,,,,6.28e-05 ± 1.4e-05,,
G51A U54C,< 1e-05,,,,,,
A52C C68A,2.96e-05 ± 7.8e-06,,3.82e-05 ± 1.2e-05,3.05e-05 ± 1.2e-05,,,
U47G C61G,1.1e-05 ± 2e-06,,,,,,
U47G C61U,2.06e-05 ± 4.9e-06,,,,,< 1e-05,
A53U C68A,5.43e-05 ± 1.6e-05,,6.67e-05 ± 8.3e-06,6.54e-05 ± 9.8e-06,,,3.62e-05 ± 1e-05
U45C U54A,0.00783 ± 0.0023,6680 ± 2400,0.00072 ± 0.00011,0.00255 ± 0.00053,0.00436 ± 0.001,,0.000161 ± 3.3e-05
U47G A64G C70G,3.26e-05 ± 9.4e-06,,,,,< 1e-05,
C50G U54G,4.74e-05 ± 1.5e-05,,4.18e-05 ± 1.1e-05,3.85e-05 ± 1.5e-05,,,7.22e-05 ± 1.2e-05
U54C C68A,2.49e-05 ± 6.3e-06,,,,,< 1e-05,
U45C U56G,0.00225 ± 0.00059,4840 ± 1800,0.000335 ± 4.1e-05,0.000677 ± 0.00011,0.00156 ± 0.00019,,5.85e-05 ± 1.2e-05
U54C C71A,0.00379 ± 0.00088,1580 ± 530,0.00133 ± 0.00019,0.00192 ± 0.00026,0.0039 ± 0.00049,0.000112 ± 1.4e-05,0.000296 ± 4.1e-05

Variant,kcat [1] [s⁻¹],KM [2] [µM],self-cleavage kobs at 640 uM GlcN6P [3] [s⁻¹],self-cleavage kobs at 2500 uM GlcN6P [4] [s⁻¹],self-cleavage kobs at 10000 uM GlcN6P [5] [s⁻¹],self-cleavage kobs at 40 uM GlcN6P [6] [s⁻¹],self-cleavage kobs at 160 uM GlcN6P [7] [s⁻¹]
U47C C70G,0.000161 ± 3.3e-05,,0.000172 ± 3.5e-05,0.00012 ± 3e-05,0.000256 ± 0.0001,,7.93e-05 ± 2.2e-05
G44C A53C,6.93e-05 ± 2.5e-06,2650 ± 300,,3.4e-05 ± 1e-05,5.46e-05 ± 9.3e-06,,
C50G U65G,5.8e-05 ± 2.4e-05,,,7.28e-05 ± 2.4e-05,,,4.97e-05 ± 1.7e-05
U45G U54C,0.0089 ± 0.00053,1480 ± 160,0.00308 ± 0.00078,0.00519 ± 0.00085,0.00798 ± 0.001,0.000233 ± 5.4e-05,0.000851 ± 0.00024
C50U A53C U54G,1.06e-05 ± 9.8e-07,,,,< 1e-05,,
U46A U55A,0.00375 ± 0.001,2140 ± 820,0.00107 ± 0.00026,0.00221 ± 0.00094,0.00298 ± 0.00056,5.91e-05 ± 1.3e-05,0.00063 ± 0.00021
C50G C71G,0.000204 ± 3.9e-05,,0.000149 ± 2.4e-05,0.000242 ± 3.1e-05,,0.000109 ± 9.6e-06,0.000249 ± 4.4e-05
U46A G60A,< 1e-05,,< 1e-05,,,,
A48U U57G,< 1e-05,,,,< 1e-05,< 1e-05,< 1e-05
C50A C67U,1.84e-05 ± 4e-06,,,,,,
U54A G59U,0.000197 ± 2.9e-05,,,,5.84e-05 ± 1e-05,,
U54A G59A,6.69e-05 ± 7.1e-06,4220 ± 1300,,,4.72e-05 ± 7.4e-06,,
U45A U56G,0.0614 ± 0.024,3390 ± 1600,0.0108 ± 0.0024,0.0272 ± 0.0087,0.0457 ± 0.011,0.000857 ± 0.00011,0.00188 ± 0.00049
U46A G66A,0.000792 ± 5.9e-05,2830 ± 440,0.000156 ± 3.3e-05,0.000321 ± 8.6e-05,0.00063 ± 7.9e-05,,
U47C U56G,0.00245 ± 0.00054,1580 ± 540,0.000708 ± 8.7e-05,0.00108 ± 0.00025,0.00243 ± 0.0003,7.97e-05 ± 1.3e-05,0.000196 ± 4e-05
U45C A53G,0.00416 ± 0.0017,,0.000905 ± 0.00016,0.00188 ± 0.00042,0.00291 ± 0.00074,,0.000134 ± 4.9e-05
U45G U65G,0.00365 ± 0.0011,2200 ± 1000,0.000639 ± 0.00024,0.00296 ± 0.00091,0.00282 ± 0.00077,7.22e-05 ± 2.1e-05,
G44U C71U,0.000114 ± 4.5e-05,,,9.61e-05 ± 1.4e-05,8.62e-05 ± 1.2e-05,< 1e-05,
